Columns and labels:
maize HPPD [1] = assay: ON rate ratio, OFF rate ratio and insensitivity parameter with herbicidal HPPD inhibitors; type: biochemical
Source text: To devise a parameter for detecting changes in inhibitor binding affinity, KD, one can utilize the relationship between KD and the rates of binding and release of inhibitor to and from the enzyme. [formula] Higher KD (reduced affinity or increased insensitivity) can be attained with a numerically smaller ON rate, a larger OFF rate or both. […] The ratio of the reaction rate with inhibitor to that without inhibitor during the 70 to 90 second interval of the reaction was termed the “ON rate ratio”. […] Incubations with the same concentrations of enzyme but no mesotrione were done in parallel. After 1 hr at room temperature, 5 to 10 ul of the enzyme-inhibitor complex was dispensed into the wells of the assay plate. Reactions were started with the addition of 290 to 295 ul of 25 mM Hepes, pH 7, 2 mM ascorbate, 10 uM FeSO4, 100 uM HPP and 50 nM HGD. The reactions were monitored at 320 nm for 12 min. Reaction velocity accelerates as inhibitor is released from the enzyme until a steady state is reached, during which the reaction velocity is constant. The ratio of the steady state rate in mixtures containing mesotrione (or other herbicidal inhibitor) to the initial velocity of mixtures lacking inhibitor is termed the “OFF rate ratio”. Another parameter to record is the time span required for the reactions with inhibitor to reach the steady state. […] It is not certain that the steady state attained in the OFF rate reactions actually represents an equilibrium where OFF rates are now equal to ON rates. Because substrate and inhibitors bind in the same site, the high concentration of substrate present may competitively trap the inhibitor and prevent it from binding again. To be sure that improvement in ON rates is being taken into account, the ON and OFF rate ratios were multiplied together and the product is termed the “insensitivity parameter”. […] The variants in Table 9 were grouped according to the parameter in which they are improved compared to wild type. The sequence positions are numbered according to the wild-type maize amino acid sequence of SEQ ID 1. Some substitutions are effective in multiple contexts, as discussed in the next section.

maize HPPD [2] = assay: KD by isothermal titration calorimetry; type: binding
Protocol: To verify that the insensitivity parameter reflects improvement (elevation) in KD, KD was directly measured with isothermal titration calorimetry. […] Enzymes were transferred to a matrix of 25 mM Hepes, pH 7, 2 mM ascorbate and 10 uM FeSO4 by gel-filtration chromatography. Mesotrione or tembotrione were diluted into the same buffer. Enzyme concentrations in the cell ranged from 100 to 300 uM. Inhibitor concentrations in the syringe were always 8 times that of the cell concentration.

soybean plants = assay: Herbicide spray tests of transgenic HPPD soy plants (T1/T2) with multiple HPPD-inhibitor herbicides, visual injury; type: in vivo; settings: T1 plants, V1 stage; mesotrione, tembotrione, topramezone, isoxaflutole
Protocol: T1 plants were evaluated for zygosity. Homozygous single-locus transgenic plants and their corresponding null segregants were identified and T2 true breeding seed was obtained from each. Plants were grown to the V1 to V2 growth stage and then sprayed with the commercial formulation of mesotrione, tembotrione, topramezone, and isoxaflutole. All treatments were applied with nonionic surfactant and ammonium sulfate in a spray volume of 374 L/ha. Multiple rates of each herbicide were applied so a response range could be used to compare the relative tolerance of the different herbicides as well as the relative tolerance of homozygous nulls and positives for each event. The herbicide response for individual treated plants was evaluated by comparing to untreated plants of similar genetic background. Herbicide response ratings were eight days after treatment. Visual injury was on a scale of 0 to 100% injury (0=no effect to 100=dead plant).
T1 soybean plants expressing D0223903 (SEQ ID NO: 3) driven by a synthetic promoter (as described in U.S. Pat. No. 6,072,050) were evaluated with qPCR for the presence of the transgene and null and positive segregants selected. Plants were sprayed at the V1 growth stage with the commercial formulations of mesotrione, tembotrione, topramezone, and isoxaflutole. Two rates of each herbicide were applied foliarly with nonionic surfactant and ammonium sulfate in a spray volume of 374 L/ha. The herbicide response for individual plants was determined by comparing to untreated plants of similar genetic background. Visual injury was on a scale of 0 to 100% injury (0=no effect to 100=dead plant).

Fold vs wt (KD) (maize HPPD [2]; Mesotrione, sites modeled: One): 3.6 | Fold vs wt (KD) (maize HPPD [2]; Mesotrione, sites modeled: Two): 4.9 | Fold vs wt (KD) (maize HPPD [2]; Tembotrione, sites modeled: Two): 7.3
B1: D0223903: shuffled maize HPPD variant, SEQ ID NO: 3; R341C mutation introduced into HPPD D0193494 (protein)
chain: MGPTPTATAAGAAVAAASAAEQAAFRLVGHRNFVRFNPRSDRFHTLAFHHVELWCADAASAAGRFSFALGAPLAARSDLSTGNSAHASLLLRSGSLSFLFTAPYAHGADAATAALPSFSAAAARRFAADHGLAVRAVALRVADAEDAFRASVAAGARPAFGPVDLGRGFRLAEVELYGDVVLRYVSYPDGAAGEPFLPGFEGVASPGAADYGLSRFDHIVGNVPELAPAAAYFAGFTGFHEFAEFTTEDVGTAESGLNSMALANNSENVLLPLNEPVHGTKRRSQIQTFLDHHGGPGVQHIALASDDVLRTLREMQARSAMGGFEFLPPPPSDYYDGVRRCAGDVLTEAQINECQELGVLVDRDDQGVLLQIFTKPVGDRPTFFLEIIQRIGCMEKDEKGQEYQKGGCGGFGKGNFSQLFKSIEDYEKSLEAKQAAAAATAQGS
modifications: HPPD variant
notes: R341C mutation introduced into HPPD D0193494
Insensitivity parameter (ON rate ratio × OFF rate ratio) relative to that of maize wild-type HPPD (maize HPPD [1]; Isoxaflutole (diketonitrile)): 12.3 | Insensitivity parameter (ON rate ratio × OFF rate ratio) relative to that of maize wild-type HPPD (maize HPPD [1]; Sulcotrione): 3.3 | Insensitivity parameter (ON rate ratio × OFF rate ratio) relative to that of maize wild-type HPPD (maize HPPD [1]; Topramezone): 12.7 | Triple product (ON rate ratio × OFF rate ratio × kcat), relative to that of maize wild-type HPPD (maize HPPD [1]; inhibitor Isoxaflutole (diketonitrile)): 7.7 | Triple product (ON rate ratio × OFF rate ratio × kcat), relative to that of maize wild-type HPPD (maize HPPD [1]; inhibitor Mesotrione): 3.7 | Triple product (ON rate ratio × OFF rate ratio × kcat), relative to that of maize wild-type HPPD (maize HPPD [1]; inhibitor Sulcotrione): 2.1 | Triple product (ON rate ratio × OFF rate ratio × kcat), relative to that of maize wild-type HPPD (maize HPPD [1]; inhibitor Tembotrione): 12.1 | Triple product (ON rate ratio × OFF rate ratio × kcat), relative to that of maize wild-type HPPD (maize HPPD [1]; inhibitor Topramezone): 8.0 | Insensitivity parameter (ON rate ratio × OFF rate ratio) relative to that of maize wild-type HPPD (maize HPPD [1]; mesotrione): 6.0 | Insensitivity parameter (ON rate ratio × OFF rate ratio) relative to that of maize wild-type HPPD (maize HPPD [1]; tembotrione): 19.3 | soybean tolerance to HPPD-inhibitor herbicides (soybean plants): increased soybean tolerance
